From paper PMC4038614

Columns and labels:
[1] = biological target: Ly49H (B6 allele), endogenous on splenic NK cells (mouse (endogenous in splenic NK cells)) (UniProt Q60682)
[2] = biological target: Ly49C^B6 expressed on BWZ.36 cells (BWZ-Ly49C) (mouse (B6)) (UniProt Q64329); assay: flow cytometry on cells; association time course: BWZ transfectants with saturating m157-Fc for 30 sec/1 min to 40 min at 4°C; MFI at 40 min = 100%
[3] = biological target: Ly49H^B6 expressed on BWZ.36 cells (BWZ-Ly49H) (mouse (B6)) (UniProt Q60682); assay: as above
[4] = biological target: Ly49C^B6 expressed on BWZ.36 cells (BWZ-Ly49C) (mouse (B6)) (UniProt Q64329); assay: flow cytometry on cells; dissociation: BWZ transfectants labelled with saturating m157-Fc at 4°C, washed, incubated at 37°C for 5 to 90 min with excess anti-m157 antibody 6H121 to prevent re-binding; MFI at 0 min = 100%
[5] = biological target: Ly49H^B6 expressed on BWZ.36 cells (BWZ-Ly49H) (mouse (B6)) (UniProt Q60682); assay: as above

Sequence of UniProt Q64329 (Q64329 whole entry): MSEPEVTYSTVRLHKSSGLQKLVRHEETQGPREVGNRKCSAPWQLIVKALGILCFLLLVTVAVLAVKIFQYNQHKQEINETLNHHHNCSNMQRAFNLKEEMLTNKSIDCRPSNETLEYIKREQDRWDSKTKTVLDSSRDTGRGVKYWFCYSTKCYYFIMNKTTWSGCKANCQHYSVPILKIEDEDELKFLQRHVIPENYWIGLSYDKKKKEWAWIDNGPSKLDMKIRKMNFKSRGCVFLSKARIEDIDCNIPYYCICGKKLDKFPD

m157^G1F-Fc soluble fusion protein (Fc fusion)
IFN-γ production of Ly49H^+,C^- B6 NK cells exposed to RMA cells expressing m157^G1F; abolished by blocking anti-Ly49H 3D10 [1]: 15 % IFN-γ^+
degranulation (LAMP1^+) of Ly49H^+,C^- B6 NK cells exposed to RMA cells expressing m157^G1F; abolished by blocking anti-Ly49H 3D10 [1]: 40 % LAMP1^+
time to 50% of maximal binding [2]: 5 min
time to 50% of maximal binding [3]: 7 min
time to 50% dissociation [4]: 20 min
percent still bound after 90 min [5]: > 50%
